Consider 10 molecules from US20230257470A1 (published 2023).

The target of assay [1] is T1, human FcγRIIa type R (human, UniProt P12318 36-217).
T1 construct: also called FcγRIIaR; FcγRIIa(R)
T1 chain: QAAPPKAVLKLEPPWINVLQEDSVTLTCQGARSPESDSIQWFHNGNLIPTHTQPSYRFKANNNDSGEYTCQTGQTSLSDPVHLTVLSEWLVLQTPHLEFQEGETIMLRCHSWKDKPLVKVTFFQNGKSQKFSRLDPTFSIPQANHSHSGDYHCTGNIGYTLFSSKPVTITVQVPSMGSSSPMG
In words: SPR (Biacore), antibody captured, FcγR as analyte, method of Example 14. In general terms: In SPR one partner is held on a chip, and binding of the other changes the refractive index at the surface.

Assay [2] deals with T2, mouse FcγRIII (mouse, UniProt P08508 31-215).
T2 construct: Bought protein; construct not described; also called mFcgRIII
T2 sequence (looked up): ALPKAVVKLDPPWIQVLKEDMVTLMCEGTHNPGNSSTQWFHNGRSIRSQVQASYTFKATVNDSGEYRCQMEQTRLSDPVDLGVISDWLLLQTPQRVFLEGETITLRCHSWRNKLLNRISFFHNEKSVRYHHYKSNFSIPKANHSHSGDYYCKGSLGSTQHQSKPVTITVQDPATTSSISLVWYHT
Description: SPR, antibody captured by Protein L, mouse FcγR injected, pH 7.4.

Assay [3] addresses T3, mouse FcγRIIb (mouse, UniProt P08101 40-217, limits assumed).
T3 construct: Bought protein; construct not described; also called mFcgRIIb
T3 sequence (looked up): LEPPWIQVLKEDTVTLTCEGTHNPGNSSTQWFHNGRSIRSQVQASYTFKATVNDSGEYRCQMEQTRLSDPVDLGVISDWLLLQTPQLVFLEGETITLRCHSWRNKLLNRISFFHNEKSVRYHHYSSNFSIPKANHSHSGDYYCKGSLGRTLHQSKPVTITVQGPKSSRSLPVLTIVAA
Described as above.

Assay [4] concerns the target T4, mouse FcγRI (mouse, UniProt P26151 25-297).
T4 construct: Bought protein; construct not described; also called mFcgRI
T4 sequence (looked up): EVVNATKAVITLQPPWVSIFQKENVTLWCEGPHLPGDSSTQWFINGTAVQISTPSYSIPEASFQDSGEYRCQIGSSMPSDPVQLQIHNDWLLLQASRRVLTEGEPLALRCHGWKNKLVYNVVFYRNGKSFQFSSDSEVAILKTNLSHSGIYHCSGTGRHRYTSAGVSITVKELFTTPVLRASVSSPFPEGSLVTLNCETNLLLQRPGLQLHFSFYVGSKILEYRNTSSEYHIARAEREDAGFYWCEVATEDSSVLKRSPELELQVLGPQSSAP
The description is as above.

The target in assay [5] is T5, human FcγRIIb (human, UniProt P31994 43-217, limits assumed).
T5 construct: Whole entry (AAI46679.1); also called FcγIIB; FcgRIIb
T5 sequence: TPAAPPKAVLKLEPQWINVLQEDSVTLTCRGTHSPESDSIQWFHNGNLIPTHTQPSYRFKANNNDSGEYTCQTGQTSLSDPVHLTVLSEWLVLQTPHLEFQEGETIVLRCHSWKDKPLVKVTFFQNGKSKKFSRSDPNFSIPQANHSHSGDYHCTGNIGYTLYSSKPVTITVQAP
In words: ratio of SPR KD values: KD for FcγRIIaH divided by KD for FcγRIIb.

For assay [6], the target named is T6, human FcγRIIIa(F) (human, UniProt P08637 17-208, limits assumed).
T6 construct: the assay used allotype F; also called FcgRIIIaF; FcγRIIIa allotype F158
Description: SPR, antibody captured, FcγR as analyte, capture-corrected binding amount.

Assay [7] deals with T7, human FcγRIIb (human, UniProt P31994 43-217, limits assumed).
T7 construct: also called FcgRIIb; FcγIIB
T7 sequence: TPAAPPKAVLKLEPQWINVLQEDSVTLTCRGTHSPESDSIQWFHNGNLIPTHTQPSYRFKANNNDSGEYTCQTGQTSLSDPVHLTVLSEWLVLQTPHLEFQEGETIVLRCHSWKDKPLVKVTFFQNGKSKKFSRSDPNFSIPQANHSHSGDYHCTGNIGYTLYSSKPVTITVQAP
The assay is described as above.

Assay [8] deals with T8, human FcγRIIa(R) (human, UniProt P12318 36-217).
T8 construct: also called FcgRIIaR; FcγRIIa type R
T8 chain: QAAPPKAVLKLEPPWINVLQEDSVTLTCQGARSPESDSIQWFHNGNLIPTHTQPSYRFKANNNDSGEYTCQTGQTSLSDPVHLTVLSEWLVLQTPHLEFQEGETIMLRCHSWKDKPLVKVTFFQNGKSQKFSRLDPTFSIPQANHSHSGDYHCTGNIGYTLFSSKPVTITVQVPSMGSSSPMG
Description: SPR, captured antibody, FcγR analyte; bound amount per captured antibody.

T6 sequence (P08637 other isoform, or with tags, fused parts or gaps limits assumed): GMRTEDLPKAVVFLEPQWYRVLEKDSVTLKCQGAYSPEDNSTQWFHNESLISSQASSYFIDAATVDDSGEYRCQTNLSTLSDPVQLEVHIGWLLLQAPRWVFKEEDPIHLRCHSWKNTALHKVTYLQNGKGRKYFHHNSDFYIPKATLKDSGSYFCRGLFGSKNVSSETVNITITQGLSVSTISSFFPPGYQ

B1: IL6R-PD082/IL6R-L (antibody, human IgG1)
heavy: QVQLQESGPGLVKPSETLSLTCAVSGHSISHDHAWSWVRQPPGEGLEWIGFISYSGITNYNPSLQGRVTISRDNSKNTLYLQMNSLRAEDTAVYYCARSLARTTAMDYWGEGTLVTVSSASTKGPSVFPLAPSSKSTSGGTAALGCLVKDYFPEPVTVSWNSGALTSGVHTFPAVLQSSGLYSLSSVVTVPSSSLGTQTYICNVNHKPSNTKVDKKVEPKSCDKTHTCPPCPAPELLGFDSVFLFPPKPKDTLYISRTPEVTCVVVDVSHEDPEVKFNWYVDGVEVHNAKTKPREEQYNSTYRVVSVLTVLHQDWLNGKEYKCKVSNKALPAPIEKTISKAKGQPREPQVYTLPPSRDELTKNQVSLTCLVKGFYPSDIAVEWESNGQPENNYKTTPPVLDSDGSFFLYSKLTVDKSRWQQGNVFSCSVMHEALHYHYTQKSLSLSP
light: DIQMTQSPSSLSASVGDRVTITCRASQDISSYLNWYQQKPGKAPKLLIYYTSRLHSGVPSRFSGSGSGTDFTFTISSLQPEDIATYYCQQGNTLPYTFGQGTKVEIK
notes: Alteration is counted against IL6R-F11; also called G237F/P238D; P238D/G237F
For B1, in assay [1], the affinity, expressed as Kd, was 1400 nM.

B2: VH3/L(WT)-IgG1-F821 (antibody)
heavy: QVQLQESGPGLVKPSETLSLTCAVSGHSISHDHAWSWVRQPPGEGLEWIGFISYSGITNYNPSLQGRVTISRDNSKNTLYLQMNSLRAEDTAVYYCARSLARTTAMDYWGEGTLVTVSSASTKGPSVFPLAPSSKSTSGGTAALGCLVKDYFPEPVTVSWNSGALTSGVHTFPAVLQSSGLYSLSSVVTVPSSSLGTQTYICNVNHKPSNTKVDKKVEPKSCDKTHTCPPCPAPELRGGPKVFLFPPKPKDTLYISRTPEVTCVVVDVSHEDPEVKFNWYVDGVEVHNAKTKPREEQYNSTYRVVSVLTVLHQDWLNGKEYKCKVSNKALPAPIEKTISKAKGQPREPQVYTLPPSRDELTKNQVSLTCLVKGFYPSDIAVEWESNGQPENNYKTTPPVLDSDGSFFLYSKLTVDKSRWQQGNVFSCSVMHEALHYHYTQKSLSLSP
light: not shown
notes: L235R/S239K variant of VH3-IgG1-F11 with L(WT)-CK; also called VH3-IgG1-F821; copies: 2 + 2
Turning to B2, the binding result in assay [2], in assay [3] and in assay [4] was “no binding” each time.

B3: IL6R-BP147/IL6R-L (antibody, human IgG1, name in EU numbering)
heavy: QVQLQESGPGLVKPSETLSLTCAVSGHSISHDHAWSWVRQPPGEGLEWIGFISYSGITNYNPSLQGRVTISRDNSKNTLYLQMNSLRAEDTAVYYCARSLARTTAMDYWGEGTLVTVSSASTKGPSVFPLAPSSKSTSGGTAALGCLVKDYFPEPVTVSWNSGALTSGVHTFPAVLQSSGLYSLSSVVTVPSSSLGTQTYICNVNHKPSNTKVDKKVEPKSCDKTHTCPPCPAPEYLGDDSVFLFPPKPKDTLMISRTPEVTCVVVDVSHEDPEVKFNWYVDGVEVHNAKTKPREEQYNSTYRVVSVLTVLHQDWLNGKEYKCKVSNAALPKPIEKTISKAKGQPREPQVYTLPPSRDELTKNQVSLTCLVKGFYPSDIAVEWESNGQPENNYKTTPPVLDSDGSFFLYSKLTVDKSRWQQGNVFSCSVMHEALHNHYTQESLSLSP
light: DIQMTQSPSSLSASVGDRVTITCRASQDISSYLNWYQQKPGKAPKLLIYYTSRLHSGVPSRFSGSGSGTDFTFTISSLQPEDIATYYCQQGNTLPYTFGQGTKVEIK
notes: Alterations introduced into IL6R-B3 (EU numbering)
In the case of B3, the “KD(IIaH)/KD(IIb)” value in assay [5] came out at 77.7.

B4: VH3/L(WT)-IgG1-F939 (antibody)
heavy: QVQLQESGPGLVKPSETLSLTCAVSGHSISHDHAWSWVRQPPGEGLEWIGFISYSGITNYNPSLQGRVTISRDNSKNTLYLQMNSLRAEDTAVYYCARSLARTTAMDYWGEGTLVTVSSASTKGPSVFPLAPSSKSTSGGTAALGCLVKDYFPEPVTVSWNSGALTSGVHTFPAVLQSSGLYSLSSVVTVPSSSLGTQTYICNVNHKPSNTKVDKKVEPKSCDKTHTCPPCPAPELRGGPKVFLFPPKPKDTLYISRTPEVTCVVVDVSHEDPEVKFNWYVDGVEVHNAKTKPREEQYNSTYRVVSVLTVLHQDWLNGKEYKCKVSNKALPAPIEKTISKAKGQPREPQVYTLPPSRDELTKNQVSLTCLVKGFYPSDIAVEWESNGQPENNYKTTPPVLDSDGSFFLYSKLTVDKSRWQQGNVFSCSVMHEALHYHVTQKSLSLSP
light: not shown
notes: L235R/S239K variant of VH3-IgG1-F890 with L(WT)-CK; also called VH3-IgG1-F939; copies: 2 + 2
As for B4, the binding result in assay [2], in assay [3] and in assay [4] was “no binding” each time.

B5: IL6R-BP143/IL6R-L (antibody, human IgG1, name in EU numbering)
heavy: QVQLQESGPGLVKPSETLSLTCAVSGHSISHDHAWSWVRQPPGEGLEWIGFISYSGITNYNPSLQGRVTISRDNSKNTLYLQMNSLRAEDTAVYYCARSLARTTAMDYWGEGTLVTVSSASTKGPSVFPLAPSSKSTSGGTAALGCLVKDYFPEPVTVSWNSGALTSGVHTFPAVLQSSGLYSLSSVVTVPSSSLGTQTYICNVNHKPSNTKVDKKVEPKSCDKTHTCPPCPAPEYLGGDSVFLFPPKPKDTLMISRTPEVTCVVVDVSHEDPEVKFNWYVDGVEVHNAKTKPREEQYNSTYRVVSVLTVLHQDWLNGKEYKCKVSNAALPAPIEKTISKAKGQPREPQVYTLPPSRDELTKNQVSLTCLVKGFYPSDIAVEWESNGQPENNYKTTPPVLDSDGSFFLYSKLTVDKSRWQQGNVFSCSVMHEALHNHYTQESLSLSP
light: DIQMTQSPSSLSASVGDRVTITCRASQDISSYLNWYQQKPGKAPKLLIYYTSRLHSGVPSRFSGSGSGTDFTFTISSLQPEDIATYYCQQGNTLPYTFGQGTKVEIK
notes: as for B3
Turning to B5, the “KD(IIaH)/KD(IIb)” value in assay [5] came to 4.71.

B6: VH3/L(WT)-IgG1-F1009 (antibody)
heavy: QVQLQESGPGLVKPSETLSLTCAVSGHSISHDHAWSWVRQPPGEGLEWIGFISYSGITNYNPSLQGRVTISRDNSKNTLYLQMNSLRAEDTAVYYCARSLARTTAMDYWGEGTLVTVSSASTKGPSVFPLAPSSKSTSGGTAALGCLVKDYFPEPVTVSWNSGALTSGVHTFPAVLQSSGLYSLSSVVTVPSSSLGTQTYICNVNHKPSNTKVDKKVEPKSCDKTHTCPPCPAPELRGGPKVFLFPPKPKDVLYISRTPEVTCVVVDVSHEDPEVKFNWYVDGVEVHNAKTKPREEQYNSTYRVVSVLQPLHADWLNGKEYKCKVSNKALPAPIEKTISKAKGQPREPQVYTLPPSRDELTKNQVSLTCLVKGFYPSDIAVEWESNGQPENNYKTTPPVLDSDGSFFLYSKLTVDKSRWQQGNVFSCSVMHEALHYHVTQKSLSLSP
light: not shown
notes: L235R/S239K variant of VH3-IgG1-F947 with L(WT)-CK; also called VH3-IgG1-F1009; copies: 2 + 2
As for B6, the binding result in assay [2], in assay [3] and in assay [4] was “no binding” each time.

B7: GpH7-B3 L328R/GpL16-k0 (antibody, human IgG1)
heavy: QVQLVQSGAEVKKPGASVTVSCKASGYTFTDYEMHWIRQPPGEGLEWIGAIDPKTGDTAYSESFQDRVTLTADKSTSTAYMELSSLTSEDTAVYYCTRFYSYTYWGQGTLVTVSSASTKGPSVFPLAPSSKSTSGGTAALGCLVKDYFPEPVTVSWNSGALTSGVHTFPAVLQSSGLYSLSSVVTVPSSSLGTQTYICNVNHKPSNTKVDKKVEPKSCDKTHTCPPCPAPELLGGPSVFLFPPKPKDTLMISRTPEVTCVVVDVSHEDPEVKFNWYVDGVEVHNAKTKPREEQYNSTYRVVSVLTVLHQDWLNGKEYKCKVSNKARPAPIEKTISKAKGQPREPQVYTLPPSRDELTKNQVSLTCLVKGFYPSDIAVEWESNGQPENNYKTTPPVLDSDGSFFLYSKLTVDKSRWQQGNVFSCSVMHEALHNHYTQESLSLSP
light: DIVMTQSPLSLPVTPGEPASISCQASESLVHSNRNTYLHWYLQKPGQSPQLLIYKVSNRFSGVPDRFSGSGSGTDFTLKISRVEAEDVGVYYCSQNTHVPPTFGQGTKVEIE
notes: Anti-glypican-3 human IgG1 with B3 constant region (G1d with K439E); also called B3 variant; copies: 2 + 2
Take B7: the relative binding activity in assay [6] is 1 % of GpH7-B3/GpL16-k0; in assay [7], 3 % of GpH7-B3/GpL16-k0.

B8: GpH7-B3 G236K/GpL16-k0 (antibody, human IgG1)
heavy: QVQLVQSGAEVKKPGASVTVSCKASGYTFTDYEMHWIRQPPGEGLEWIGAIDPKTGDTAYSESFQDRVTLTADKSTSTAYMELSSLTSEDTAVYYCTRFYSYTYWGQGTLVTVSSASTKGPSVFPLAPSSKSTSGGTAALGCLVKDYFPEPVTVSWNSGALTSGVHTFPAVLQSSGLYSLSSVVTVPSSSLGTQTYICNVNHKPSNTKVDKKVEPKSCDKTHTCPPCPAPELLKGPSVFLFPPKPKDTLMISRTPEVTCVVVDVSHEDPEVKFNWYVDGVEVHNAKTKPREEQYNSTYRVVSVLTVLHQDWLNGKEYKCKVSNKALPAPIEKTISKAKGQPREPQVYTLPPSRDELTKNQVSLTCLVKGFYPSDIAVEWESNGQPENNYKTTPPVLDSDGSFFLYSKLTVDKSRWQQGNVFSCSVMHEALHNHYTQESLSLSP
light: DIVMTQSPLSLPVTPGEPASISCQASESLVHSNRNTYLHWYLQKPGQSPQLLIYKVSNRFSGVPDRFSGSGSGTDFTLKISRVEAEDVGVYYCSQNTHVPPTFGQGTKVEIE
notes: anti-glypican-3 IgG1; B3 constant region (G1d with K439E); also called B3 variant; copies: 2 + 2
As for B8, the relative binding activity in assay [8] is 9 % of GpH7-B3/GpL16-k0.

B9: GpH7-B3 L234G/GpL16-k0 (antibody, human IgG1)
heavy: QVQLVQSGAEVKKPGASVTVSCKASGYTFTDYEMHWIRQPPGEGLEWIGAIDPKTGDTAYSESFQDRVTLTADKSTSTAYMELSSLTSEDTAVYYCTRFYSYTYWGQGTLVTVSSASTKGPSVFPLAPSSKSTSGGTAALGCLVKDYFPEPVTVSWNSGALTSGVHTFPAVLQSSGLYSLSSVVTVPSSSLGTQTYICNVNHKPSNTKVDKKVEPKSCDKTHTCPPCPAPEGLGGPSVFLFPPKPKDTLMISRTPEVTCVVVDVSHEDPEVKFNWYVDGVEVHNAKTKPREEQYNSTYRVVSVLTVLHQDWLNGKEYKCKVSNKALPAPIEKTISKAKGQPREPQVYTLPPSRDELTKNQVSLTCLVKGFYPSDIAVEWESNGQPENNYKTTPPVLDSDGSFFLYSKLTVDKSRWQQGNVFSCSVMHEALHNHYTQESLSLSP
light: DIVMTQSPLSLPVTPGEPASISCQASESLVHSNRNTYLHWYLQKPGQSPQLLIYKVSNRFSGVPDRFSGSGSGTDFTLKISRVEAEDVGVYYCSQNTHVPPTFGQGTKVEIE
notes: as for B8
With B9, the relative binding activity in assay [8] was 9 % of GpH7-B3/GpL16-k0.

B10: GpH7-B3 P329Q/GpL16-k0 (antibody, human IgG1)
heavy: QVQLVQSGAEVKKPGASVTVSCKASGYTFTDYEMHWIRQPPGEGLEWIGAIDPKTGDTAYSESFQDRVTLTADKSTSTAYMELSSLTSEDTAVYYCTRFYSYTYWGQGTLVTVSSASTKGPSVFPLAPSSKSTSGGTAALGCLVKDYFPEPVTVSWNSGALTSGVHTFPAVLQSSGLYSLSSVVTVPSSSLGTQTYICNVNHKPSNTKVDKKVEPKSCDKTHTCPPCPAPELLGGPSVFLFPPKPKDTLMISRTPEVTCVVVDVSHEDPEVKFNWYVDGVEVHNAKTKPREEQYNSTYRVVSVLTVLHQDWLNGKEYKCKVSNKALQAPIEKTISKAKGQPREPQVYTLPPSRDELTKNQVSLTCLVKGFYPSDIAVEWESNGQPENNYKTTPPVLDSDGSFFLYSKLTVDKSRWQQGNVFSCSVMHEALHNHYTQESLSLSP
light: DIVMTQSPLSLPVTPGEPASISCQASESLVHSNRNTYLHWYLQKPGQSPQLLIYKVSNRFSGVPDRFSGSGSGTDFTLKISRVEAEDVGVYYCSQNTHVPPTFGQGTKVEIE
notes: as for B7
Turning to B10, the relative binding activity in assay [6] is 1 % of GpH7-B3/GpL16-k0; in assay [7] it was 2 % of GpH7-B3/GpL16-k0.
